The results in this text go back to US20240092922A1 (EUCURE BEIJING BIOPHARMA, published 2024).

The target in assay [1] is T1, human 4-1BB (h4-1BB) on transiently transfected CHO cells (human, UniProt Q07011 24-255).
T1 construct: also called TNFRSF9; CD137
As to the kind of experiment: flow cytometry, CHO cells transfected with human 4-1BB, antibody at 1 µg/ml. A general note: A flow cytometer gives signals particle by particle.
Experimental: (§1) 25 μl CHO cells transiently transfected with human 4-1BB were added to each well in a plate. The purified antibodies were titrated to final concentrations of 10, 1, 0.1, 0.01, 0.001 μg/ml. The titrated antibodies were added to each well at 4° C. and incubated for 30 minutes.
(§2) After being washed with phosphate-buffered saline (PBS) (1200 rpm, 5 minutes) twice, 50 μl of FITC labeled anti-mouse IgG Fc antibody (anti-mIgG Fc-FITC) at 1:100 dilution was added into each well, and incubated for 30 minutes at 4° C., followed by PBS wash (1200 rpm, 5 minutes). The signal for FITC was detected by flow cytometry.

Assay [2] concerns the target T1, human 4-1BB (h4-1BB) on transiently …. As to the kind of experiment: flow cytometry, CHO cells transfected with human 4-1BB, antibody at 10 µg/ml.
Experimental: as §1, §2
Assay [3] concerns the target T2, mouse 4-1BB (m4-1BB) on transfected CHO cells (mouse, UniProt P20334 24-256).
T2 construct: also called CHO-m4-1BB
Put plainly: flow cytometry on CHO-m4-1BB cells, anti-mouse-IgG-Fc-FITC (1:100).
Experimental: 25 μl CHO cells were added to each well. 25 μl purified anti-h4-1BB antibodies (1 μg/ml) were added to each well and were incubated at 4° C. for 30 minutes.
After being washed with PBS (1200 rmp, 5 min) twice, 50 μl of FITC labeled anti-mouse IgG Fc antibody (anti-mIgG Fc-FITC) was added into each well at 1:100 dilution, followed by incubating at 4° C. for 30 minutes, and then PBS wash (1200 rmp, 5 min). In some cases, PE labeled anti-mouse IgG Fc antibody (anti-mIgG Fc-PE) was used to label the antibody instead, and was added into each tested well at 1:500 dilution. The signals for FITC and PE were determined by flow cytometry.

The target of assay [4] is T1, human 4-1BB (h4-1BB) on transiently …. As to the kind of experiment: flow cytometry, CHO cells transfected with human 4-1BB, antibody at 0.001 µg/ml.
Experimental: as §1, §2
Assay [5] shares this target. Put plainly: flow cytometry, CHO cells transfected with human 4-1BB, antibody at 0.1 µg/ml.
Experimental: as §1, §2
The target is the same in assay [6]. Put plainly: flow cytometry, CHO cells transfected with human 4-1BB, antibody at 0.01 µg/ml.
Experimental: as §1, §2

B1: 16-1C4 (antibody, V domains shown)
VH: QGQMQQSGAELVKPGASVKLSCKTSGFTFSSSYINWLKQKPGQSLEWIAWIFAGTGGTYYNQKFTGKAQLTVDTSSGTAYMQFSSLTTEDSAIYYCARHSPRATLFDFWGQGTTLTVSS
VL: QIVLSQSPAILSASPGEKVTMTCRASSSVNHMHWYQQRTGFSPKAWIYATSNLASGVPARFSGSGSGTSYSLTISRVEAEDAATYYCQQWSSNPYTFGGGTKLEIK
notes: mouse antibody purified from ascites
Take B1: the “percentage of cells with FITC signal” value in assay [1] was 69%; in assay [2], 69.1%; in assay [4], 0.316%; in assay [5] it was 49.7%; in assay [6], 6.61%. Further, the binding result in assay [3] is “no binding (tested: 1 µg/ml)”.
